Source: patent US12134635 (SONNET BIOTHERAPEUTICS, dated 2024)
One block for each molecule: values may come before it.

Columns and labels:
[1] = molecular target: IL-18 binding protein (UniProt O95998); experiment: Biacore T200 SPR, CM5 chip, IL-18BP as immobilized ligand, hIL-18 titrated, 25 C
[2] = molecular target: T1, IL-18 receptor (UniProt Q13478 19-541; O95256 20-599, limits assumed); experiment: cell-based or functional assay
T1 sequence (looked up) 1: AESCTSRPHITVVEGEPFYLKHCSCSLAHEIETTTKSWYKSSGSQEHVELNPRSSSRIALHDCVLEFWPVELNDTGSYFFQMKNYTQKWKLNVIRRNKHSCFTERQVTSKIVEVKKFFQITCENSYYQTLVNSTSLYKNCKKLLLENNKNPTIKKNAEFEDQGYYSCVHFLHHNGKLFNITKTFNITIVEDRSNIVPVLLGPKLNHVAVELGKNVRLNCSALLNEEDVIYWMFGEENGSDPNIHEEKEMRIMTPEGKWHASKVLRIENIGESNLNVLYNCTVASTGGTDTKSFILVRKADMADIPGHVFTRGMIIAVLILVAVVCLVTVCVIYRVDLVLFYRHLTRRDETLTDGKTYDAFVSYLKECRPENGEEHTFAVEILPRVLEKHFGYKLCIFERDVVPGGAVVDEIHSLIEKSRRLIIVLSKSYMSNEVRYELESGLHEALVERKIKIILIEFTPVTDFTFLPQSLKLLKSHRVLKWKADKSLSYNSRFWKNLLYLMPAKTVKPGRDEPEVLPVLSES
T1 sequence (looked up) 2: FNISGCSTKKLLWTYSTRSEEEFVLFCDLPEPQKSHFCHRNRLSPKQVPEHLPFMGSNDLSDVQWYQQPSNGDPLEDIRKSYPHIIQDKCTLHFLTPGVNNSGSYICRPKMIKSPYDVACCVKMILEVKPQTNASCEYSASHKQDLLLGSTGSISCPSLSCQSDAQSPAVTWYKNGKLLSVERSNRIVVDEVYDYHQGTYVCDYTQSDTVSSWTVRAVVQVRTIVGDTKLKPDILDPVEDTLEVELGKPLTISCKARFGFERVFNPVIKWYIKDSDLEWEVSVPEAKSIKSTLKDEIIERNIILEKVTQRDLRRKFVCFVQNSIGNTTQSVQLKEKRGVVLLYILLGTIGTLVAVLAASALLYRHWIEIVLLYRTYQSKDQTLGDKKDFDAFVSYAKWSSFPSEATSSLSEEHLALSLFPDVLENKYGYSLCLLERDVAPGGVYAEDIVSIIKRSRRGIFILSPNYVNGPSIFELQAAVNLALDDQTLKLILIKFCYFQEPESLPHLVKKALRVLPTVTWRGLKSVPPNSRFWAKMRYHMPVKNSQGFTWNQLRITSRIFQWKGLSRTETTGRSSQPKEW

Kd [1]: 0.056 nM
Molecule: Recombinant hIL-18 (NIBSC wildtype) (from UniProt Q14116 37-193) (ligand)

EC50 (read off the curve), HEK-Blue IL-18 reporter, OD at 640 nM [2]: ~0.03 ng/mL
B1: hIL-18 Variant A (ligand)
chain: WFGKLESKLSVIRNLNDQVLFIDQGNRPLFEDMTDSDSRDNAPRTIFIISYYKDSQPRGWAVTISVKSEKISTLSSENKIISFKEMNPPDNIKDTKSDIIFFQRSVPGHYNKMQFESSSYEGYFLASEKERDLFKLILKKEDELGDRSIMFTVQNED
